Test: label from the status in PepcDB records

MSLLDAHIPQLIASHTAFAAKAGLMRHTIGQAEQQAMSAQAFHQGESAAAFQGAHARFVAAAAKVNTLLDIAQANLGEAAGTYVAADAAAASSYTGF
protein production: failed

MKSLYQMNHIGHPFMYPKMDITKMNKTNNQNIPNKAHNPNNSSNMNTTKKSYGTSLNYIKKENSSKNSIYNNYEYLDASHLEMLDLNKNIKNILPKPMKPSLDLESLCKETTSTMKKSKMHCMKSGENQNKNVKHFYEMGTPQIIGTYIQPLHHNTNSFNQNNFPKNHMFPLLPSSPFFQPPNFRTNLTQASSTFIPLPHANKSTNIYGMPSYLIPENKPQNLTVTVVPNKDKDSIEKEAKHLKALLDSSSKGIVNSTPDYQKIQPSTLSNYNDKESDFSFGKNDNYEHAEYSEQNCNDENDTENNYNSFVNEFYDPHNSISYNNVNEFLKNSNQKNQQHAFRLESNEEVARKVHKEFTYPKGTSLNKINILNQNYKEEGEQQQENETKNNMNMQERDEERQTMKKDSSIPKRTQLSKKKEHNNNNIVLKKHEPSTCFKNPKTYINIRLGKPKKLYITNSSDPIDKKLSEWHNTHNSQIGWKKYRRGVYTFGKTEVILSLVHDKIIVKKINGKHIKDNLLTVEKFVSLNELYEIQQEENDNMLKKRGVKFFNF
protein production: failed

MARKCEITGKKTMFGNNVPRKGLAKKKGGAGQHIGVKTKRTFKVNLINKKFFIPNLGRSVSIKVSANALRSISKIGLDAFLKKNCKKIENFLLEHHHHHH
protein production: failed

RRKVGVLVDGPNMLRKEFNINLKEIREILSEYGDIKIAKVFLNQYATEKLVEAIENQGFEPIVTSGDVDVRMAVEAMELIYNDSIDAVALVTRDADFKAVLMKAMEMGKETIIIGAEPGFSTALKNSADIAIVLNEDEE
protein production: failed

MTENTSSFPRSSGELHEFTRADVWGGFTQLLPLSFFVVVFGLAFGVAAVQTGLDAFPTLLMSTLVFAGASQFATLEMWGAEVPLVPVLITVFAINARHLLMGATLYPWLRQLPPHKRYGIMLLASDANWAMAMNAFGKKEPGFGLLVGGGLALWGFWIVGTWMGIYFGGAIKDPVSLGLDMVMGCFLLSMVAGGPKNLRIFAIWGMAAASSLMAYWYLPENSHVVVGAIAGGILGACWKEKKA
protein production: failed

MGTQRSDTRDQSARLMRRATYASVTVAMTLVVAKLVAWVLTDSVALLSTLIDSLIDVGASLVTLLAVREALTPADEEHRFGHGKAEPLAGLGQAAFIAGSGIFLVIEAAGRLTAPLPVQRGEIGIAVMVFSILATIGLVAYQRRVIAQTKSVAISADSLHYAGDLLINLSVIVSLGLAMTVDLPILDPLFAIAIALWLMKNAWTIGANSVNLLMDRELPPEDRVRIIKLALENPRVFDIHDLRTRSSGPQTFIQLNVELDGEMTLSASHAIVTEIENRLRAAFPGAEVLIHQDPAGIQEDHHPDFAYEDTSALLEADAASQPRRL
protein production: failed

VDVENPILITSFPGIGLVGTIATAHYIMELKLESIGIVDSRLLPPVASLYEGVILPPVRVYQSADLGFVLIHSDVPIIPQAAIDMSKKIVQFAAEINARRVYSFAGVATFEDKKRVFAAATSKELLEEVKDHAEIFKTGTISGIAGSIMNECVAAKMPGIVLLGETLGFNPDPRAAASLIEAVNKIMNWNVSVEKLLKEAEMIEAQMQKLAEQARMQEERKEEFPMYG
protein production: failed

MSTLIQDLKAQAGIFESDADQVHGLLAEFPDPGALLHAAEAVREEGYRHFDTHSPFPIHGMDEAMGLGNASAVGVLTFFGGITGCVVAYLLQWWTAAVDYPLNISGKPFFAVEPSVPIMFELTILFAAFGTVAGMFALNGLPRPYNPLFYSDRFKGATDDRFFLHIAASDDEFDVEDSAAMLQRLGAHHLELVKDDGTVDA
protein production: failed

MTYDLTVIIPVYNTEKYLRRCLESIVNQDDIEQCSIKVICINDGSTDESRKIIEEFVEKYSYIEIFNKENGGLADVRNTGLQFINDSLYTVSLDSDDFWDKSFLTEFNKYKSSNYDLIFFDINLVDCDGNPVKELIVNPKFDKYNKKKDFMVVKHAAWSKICRTNLYDNINFPKGKLYEDLAVMPYLTSRAERIHYIQKPLINYVINTPGSIMNSSKSNIFDIYDSLIHLFNLFGNHFEKYRNELQYLAIEHLCVGHTYRLLNYPEATKQDFKDIVIFMEKYFGKHWDKNKYVKRGVQKVNINSSLSYVVPVFLKFLKYGGIIKLYDIKRVLLSKK
protein production: failed

MAELEKTFALIKPDAVRAGKAQEIMQLIELNGFTIIAKQKLQLTRARAEEFYGEHKGKEFFPKLVNFMTSGPIWALVLAKPGAILAWRALMGPTNVFKARAEQPKCLRALYGTDGTQNATHGSDSPISAAREIKFFFPTLSGDPTIYAEPTAAAEYITKRIQPALAKALAALAREKPSADKFEAITFVAGYLLQNNPNKPKV
protein production: not failed

GVQKVDKARKQITVAGGTRINEVGKTLKQHGLSLINQGDIDSQAVAGAFTTGTHGTGIKLGNMASSIAGMRIVKANGEILDIDGSDEELLHAAQVSVGTLGIISSMTLNVMDA
protein production: failed

MFRFNLCVLLFATLATLSAAQEQTPAYVGSAECRDCHTKAAEAWEGSHHAKAWTAPTAENIVADFNDTEFRHDGTLTRFRVEDGRHYITVTEKDGVTTDYPVHSVAGIEPLQQYLLETEPGRIQSFDVVWDTIKQEWFHLYPDQDLPPDDGLHWTGPYKNWNARCAECHATGFEKNYSPVTRSYSSVPVEIGVGCEACHGPGSAHIAWATGKSLEEPLTGLSEYRLTIDYDAGTETVLQQCASCHSRREAHFDGNPVPGIPFNDAYALALLRPGAYHADGQILDEVYVYGSFLQSKMYQQGVSCSNCHEVHSAELKAEGNGVCTQCHSPAGNPSFTTLDSKNYDDPSHHYHEAGTEGAQCKSCHMIERVYMGVDGRRDHSFRIPRPDISLETDSPNACTDCHSDQSSAWAAAAIEEWYPDSENRGLHYGQVLAAGRANAVAARVPLTDLAGDTTQPGIARATALWLLEQSGDATLGAELSSMLTDTDPLVRAAAASAHGLFPPAERAAALEPALDDPRRMVRIAAGKTLLDVPRSALTPSASERLGAALREWQAGLLNRADFPETHIILAGTALTMRNFEGAERAFREVVLMDPQREEAWVMLVRIADAMRGPQAAAQVLDEALQAVPGSDTLNSMRSESLLPPQ
protein production: failed

MENRRIVIITGANSGIGKEAAQRFANEGDHVIMACRNIAFSRKVQHDIIAASGNDHVDLLELDVSSFASIRTFCTTFNSQYKRLDILIHNAAYFNHGEPYRLSPDGIELTFATNVFGPYLLTSLLRDRLKQSEDPRILHAGSNIIKHFFDPKQTFDLDLLQGNHGTKSYSVYKMYCQSKMALMLLTFQMAEVFADDGIKVNALQINGAKMSKRTIQKVKPWWRPIAWGQNLFFPPPSYMADKYFTICTSDKYKQTTGKLFNDKLEIMEPSPTHYPGFFKQMKLLLGSNVYPAYENTNIREKLWALCKELVGELEHHHHHH
protein production: not failed

MEKIIVRGGKRLNGTVRVEGAKNAVLPIIAAALLASDGKNVLSEVPVLSDVYTINEVLRHLNAEVVFENNQVTIDASKELNIEAPFEYVRKMRASVQVMGPLLARNGRARIALPGGCAIGSRPIDQHLKGFEAMGAKVQVGNGFVEAYVEGELKGAKIYLDFPSVGATENIMSAATLAKGTTILENAAKEPEIVDLANFLNAMGAKVRGAGTGTIRIEGVDKLYGANHSIIPDRIEAGTFMVAAAITGGDILIENAVPEHLRSITAKMEEMGVKIIEENEGVRVIGPDKLKAVDIKTMPHPGFPTDMQSQMMALLLQADGTSMITETVFENRFMHVEEFRRMNADIKIEGRSVIMNGPNSLQGAEVGATDLRAAAALILAGLVSEGYTRVTELKHLDRGYVDFHKKLAALGATIERVNEKVEEVKEQEVSDLHA
protein production: not failed

MVRKLRHFGDRLREEPDKFRFVLSRALWVTGLCRLITFSFPAGYRMRFYPSAISAGLWRDRNFRSEDADFVAGYLRPGETFVDVGANVGQLSLVAARRVTSSGRTIAIEAHPRTCNFLRGNVRLNGLPIEIHNVAVGSECGELFFTNFRSDDMNFAYAASPRNGSALRVPVATLDSIIGERPVDLLKVDVEGFECDLLRGAAQTLHNCRCLYIEDSEPNLRRAGSSRVELYDRLSEGGFELFHVRGKRLERVSVQAAGPLTENLIAVRGSDLPDALARTGFCLA
protein production: failed

— a protein production outcome set (Wang et al. 2014)
